Source: patent US20060052301A1, “Splice variants of peptide YY, neuropeptide Y, pancreatic peptide Y and Amylin, and uses thereof” (priority 2004, published 2006)

B1: Amylin: 37-amino acid monomeric polypeptide hormone co-secreted with insulin from pancreatic beta cells (peptide, listed as Homo sapiens)
chain: MGILKLQVFLIVLSVALNHLKATPIESHQVEKRKCNTATCATQRLANFLVHSSNNFGAILSSTNVGSNTYGKRNAVEVLKREPLNYLPL

Assays:
[1] = test system: ob/ob female mice; assay: Treatment effects on body weight and food intake, continuous infusion by Alzet mini-osmotic pump; format: in vivo; conditions: 300 or 1000 μg/Kg/day
Experimental: Assessment of potential treatment effect on body weight and food intake by PYY variants of the present invention is performed under blinded conditions. The test system includes 40 ob/ob female mice, each about 50 g & 12 weeks of age at study initiation, in 5 groups (n=8), housed 4 per cage.
The first week, representing the first stage of the experiment, is the first acclimatization stage, when the 12 hours light and dark cycles regime is applied at the same hours of the day (light cycle is between 6:30-18:30). The viability check and clinical signs observations are checked daily.
The second week of the experiment, is the second acclimatization stage, when the same 12 hours/12 hours light and dark cycles regime is applied. At this stage, every day at the same time each day, the following parameters are assessed: daily viability check and clinical signs observations, including for example, changes in skin, fur, eyes, mucous membranes, secretions, activity and response to handling, as well as any unusual behavior, sleep and coma; body weight measurement 3 times/week; and food consumption measurement 1 time/daily for 5 days a week.
The third stage, days 15-43 (weeks 3-6 of the experiment), is the test compound administration stage.
On day 15, an Alzet mini-osmotic pump (model 2004), is surgically inserted into each test animal, under general anesthesia. […]

[2] = In-vitro stability study in acetate buffer (Alzet pump model, HPLC); format: physicochemical; conditions: 20 mM acetate buffer pH 4.0, 37° C., 28 days
Experimental: (Alzet in-vitro protocol, DURECT Corporation, Calif., USA) following the analysis of the solutions by HPLC.
In all the cases 2 or 3 different experiments were carried out.

[3] = in rats, in rabbits, and in humans with Paget's disease; cited from earlier work

Molecule	body weight gain ([1]; 28 days, versus control group)	food intake ([1]; especially during the first days of the study)	Purity (%) (average ± stdev) ([2]; high dose (PYY[3-36] 10.6 mg/ml; PYY variant [3-42] 12.8 mg/ml))	Purity (%) (average ± stdev) ([2]; low dose (PYY[3-36] 3.3 mg/ml; PYY variant [3-42] 3.9 mg/ml))	lowering of plasma calcium [3]
PYY variant: PYY splice variant skipping exon 3, residues 3-42, SEQ ID NO:75; lacks last Tyr, adds 7 C-terminal residues SEGPDLW	gain significantly less weight than the control group	significant effect of reduction in the food intake	72.3 ± 0.2	69.2 ± 0.6	–
B1	–	–	–	–	up to 20%
